Results taken from patent US20250154272A1.

Molecular target: human CD137-His tag protein (R&D Systems, 9220-4B) (human) (UniProt Q07011)
Assay: ELISA, human CD137-His tag protein immobilized on the plate, anti-human IgG Fc-HRP, A450-A570

- EC50 (read off the curve): 4 ng/mL
B1: ctrl IgG_L-3-34-j6 (antibody, part only; not given: isotype control IgG chains and linker, not shown: another chain or arm of the molecule; small tags and cut ends)
scFv: EVQLLESGGGLVQPGESLRLSCKAFGYTFTNHHINWVRQAPGKCLEWVGYINPYNDYTTFNDKFKDRFTLSVDKSKSTAYLQMNSLRAEDTAVYYCARTWGHWYFDLWGQGTLVTVSSGGGGSGGGGSGGGGSNIQMTQSPSSLSASVGDRVTITCRASQSVSSNLAWYQQKPGKAPKLLIYDSSTRATGVPSRFSGSGSGTDFTLTISSLQPEDFATYYCQQYNNWPPWTFGCGTKLEIKR
